These are literature values, as cited in publication PMC9406010.

One may read the Kd as the equilibrium constant for the complex coming apart.

Among the targets are CCRL2 (Homo sapiens) (UniProt O00421); GPR1 (Homo sapiens) (UniProt P46091); CMKLR1 (Homo sapiens) (UniProt Q99788).

Chemerin, sequence (Q99969 21-157): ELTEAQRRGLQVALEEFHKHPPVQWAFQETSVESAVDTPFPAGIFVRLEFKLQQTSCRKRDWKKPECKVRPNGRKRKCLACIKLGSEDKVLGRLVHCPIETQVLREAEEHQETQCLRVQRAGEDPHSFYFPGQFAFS
CCRL2 (Homo sapiens), sequence (O00421 whole entry): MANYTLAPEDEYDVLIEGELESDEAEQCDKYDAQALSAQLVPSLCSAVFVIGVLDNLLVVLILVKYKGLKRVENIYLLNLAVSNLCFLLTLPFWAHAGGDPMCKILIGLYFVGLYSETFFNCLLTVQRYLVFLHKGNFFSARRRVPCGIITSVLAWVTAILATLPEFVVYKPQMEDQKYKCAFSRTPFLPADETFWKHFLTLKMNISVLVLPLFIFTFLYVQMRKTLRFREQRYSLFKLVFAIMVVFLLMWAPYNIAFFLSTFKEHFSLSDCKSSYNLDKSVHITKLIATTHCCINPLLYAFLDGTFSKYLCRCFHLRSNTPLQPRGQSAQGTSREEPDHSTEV
CMKLR1 (Homo sapiens), sequence (Q99788 whole entry): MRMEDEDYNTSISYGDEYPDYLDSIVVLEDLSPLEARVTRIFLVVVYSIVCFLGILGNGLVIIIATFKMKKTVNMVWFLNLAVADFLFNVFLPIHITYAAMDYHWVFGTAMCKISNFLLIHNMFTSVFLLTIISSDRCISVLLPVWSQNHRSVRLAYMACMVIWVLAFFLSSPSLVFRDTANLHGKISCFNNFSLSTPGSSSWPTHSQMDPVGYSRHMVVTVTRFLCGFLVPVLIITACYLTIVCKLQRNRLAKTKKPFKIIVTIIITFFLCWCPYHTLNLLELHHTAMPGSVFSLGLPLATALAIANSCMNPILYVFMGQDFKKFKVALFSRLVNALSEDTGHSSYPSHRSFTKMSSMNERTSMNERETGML
GPR1 (Homo sapiens), sequence (P46091 whole entry): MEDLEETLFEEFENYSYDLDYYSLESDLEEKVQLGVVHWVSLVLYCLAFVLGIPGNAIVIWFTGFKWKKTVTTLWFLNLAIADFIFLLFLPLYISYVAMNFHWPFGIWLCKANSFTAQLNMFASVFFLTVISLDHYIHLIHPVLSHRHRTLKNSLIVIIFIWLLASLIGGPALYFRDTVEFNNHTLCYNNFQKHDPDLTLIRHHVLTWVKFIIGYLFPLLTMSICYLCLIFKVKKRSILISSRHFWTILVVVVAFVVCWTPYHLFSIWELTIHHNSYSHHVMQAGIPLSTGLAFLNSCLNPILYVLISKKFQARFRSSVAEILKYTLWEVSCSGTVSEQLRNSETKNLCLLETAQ

Chemerin (from UniProt Q99969): the Kd with CCRL2 (Homo sapiens) was 2.35 nM; with GPR1 (Homo sapiens), 0.21 nM; in the data set with CMKLR1 (Homo sapiens), 0.88 nM.
